According to the DeepSol protein solubility set:

Assay: soluble on expression in E. coli; label from the status in PepcDB or PDB records

Row | Sequence | soluble on expression in E. coli
1 | MGSDKIHHHHHHMKIGIDGRAAKWYRGTGIGTYTYQLISHINKLDEANDYTIFLPDSSNLNFKLKNNFSLKSINCTAKNNFWDQVNIPNIIKKDDTELYHVPQNGIGLPYNKNCRFTITLHDIIPYKMPETVGKKYLKIFEEEIPKIIPLCDGIITVSDFSKKDISEFFNYPESKIYVTYLSAEDIYRPIEKCISKDIIKNLYGIDKNYILYVGGFSPRKNISGIIHAFSKLKKTTKTNLKLIIAGKKGLSYPNYVDIAKKLNVSSDVIFPGFIPLEYMPFLYNAAEFLIYPSFYEGFGLPPLEAMACKVPVITSNITSLYEIFNGCALIVNPYDVEKIKDAMEIMYFDSSVRKIYSEKGFEFSKKLTWNSTAISTIKAYEKISKN | not soluble
2 | MIKLTEYIYLASEQPLSTGSITLNGLSKPTGNLLNKAFFFFINDFEGDPPGKFSYSNYLKTLNYQVCSMCSLPSDNQNIETPSAIALLGYIRNHFKNTCTTKLYILSALNGFENKPISKTVTRKLSDLSYKDLYYQEMKLLKIIR | not soluble
3 | MLHCLDEFGNLKLKAIIDWQGVSTLPPGLDLSRLLMGCLSAHERRERGLEMLKLYHETFNQVLGKELFSFQELQDSYNLYYPMMAMALLPLVSSLAENSQVSEVEKAQIRFKTETKLVAMMEDLIEVHEYNLKHFPEILKG | not soluble
4 | MSYRQMLIHRCDIYHEAAQAPSAGRFGIPADRLQPVISYPDTPDEQDVPCYFTEKTQQLIQEEPDQTVYHSFLVHFPLSADIRVNDKIIWENHKYILKLPKRIRHHHWEVVAVRDESLLEHHHHHH | soluble
5 | MGSDKIHHHHHHMNIAEIEVTHKVKEKEWKEFLSRSEYATVYHTPEWKKTLEESFGYKPYYLFVKDESDLIVGMLPLFYVKSKLTGNRLSSLPFSHISGPVGDKATKNFLISEAINLYKNLGASYLEIRDRVEDNRFLSKNMFSTYILELNPNIEEVWKQLHKGSVRRAIKKSEKSGVVVDTAKDIESLKEFYDLNCVGKRKIGVPCHPWKFFKNLFRFMNDYISLYVAKYQNNIIGGGIMIYYKDTVIYGYGAAHPHYLKLYPYNAFLWKSIKDACLSRYKYFDLGRAHYNVERGLMDFKRRWGTIEKKLYYSYYSKNKDLKILDMSGLKYRLGTKVIRKMPMPIYKKFSDRIFGSLG | not soluble
6 | MAHHHHHHMILDLFDLCATPYAKRRSHLHSFMSELEDRLFRAEMALTQRRRSAVSPKEKRALGAVRPINVVVQEVLRETPILCFDEFQTFDVAHAALLAAFFSEAFREGLFFITTSNRPPEDLCRVSASFNAFLPVLRQHCHVVHCADIRDYRVKEAVERHHQLIFLHPNTKTNVERCCGVSSMLSGLVAESLHGSRRTHCGTTAAAS | soluble
7 | MKSACSIITASIVLYKSKPDIIRDVITSFFSDTVTKKKLILIDNSPTDSLRVLQEERPEDIQYFFNNRNIGFGSAHNIGIREAARFNPSYHLILNPDVQFGPEVVPTLASYMDENPDIGLLMPQVYYPNGELQHLCKLFPRPWDVMLRRFVPYRSYRERNNERFELRNWSYDTIQDIPSLSGCFMFARMDILREVGGFDERFFMYAEDLDLCRRIGQVSRTVFFPKVSIMHTYAKGSYHDAKLLRHHIVSLIRYFNKWGWLFDAERRRVNRACLAVLRNQTTVKKD | not soluble
8 | MGDSAPARIDTLEIKLLFAGDIMTHGPQIESAKCEGGRVYDFSSSFDTLASRIGAADLAIGNLETTFAGAPYSGYPTFSSPDAMGEALKNAGFDVLTTANNHTADKGKKGIIRTLDMLDSLGIAHTGSYRDIFDRDKMTPLILEVKGVRIAILAYTYGTNGMPVPAPTWVDPIDTVMIKKDLLRADSLGADYRIVQIHWGIEYRKEPDSEQLELARKLHRYGADAIIGSHPHVVQGSQWLKSDSKTSFVIYSMGNFISNQRKPAATRGGMLLSLTLRKVGDRITTHPDYQYVFVNKRTPQGKRVYRLLPVDPFSSDTLPSLPPEEQRDYKEFAKYYQMIPLVLIEREDNRIRNRLQVSQRAFLEHHHHHH | not soluble
9 | MPLRVDTLTWLSTQAAPGRVMVWPAVRPGICPGPDVWRIPLGPLPHEFRGWIAPCRPRLGASEAGDWLRRPSEGALPGPYIALRSIPKLPPPEDISGILKELQQLAKELRQKRLSLGYSQADVGIAVGALFGKVLSQTTICRFEAQQLSVANMWKLRPLLKKWLKEVEAENLLGLCKMEMILQQSGKWRRASRERRIGNSLEKFFQRCPKPTPQQISHIAGCLQLQKDVVRVWFYNRSKMGSRPTNDASPREIVGTAGPPCPGAPVCFHLGLGLPVDIPHYTRLYSAGVAHSSAPATTLGLLRF | soluble
10 | MNKAKPKVVWASVYEGSAYIAPKDSYVDNMIKMAGGINACASIDSNEGRVSIEQLHEVAKDADIFVYSSSSDYAPNLDSIKSSAPVLADLDVVKNGNLWVFAPDYYQSVDKTDELIVDLVEMFHPGTTGEKIKHYINYDKLEHHHHHH | soluble
11 | MSLDLQEKVRVAAEAVKHADAIVMTAGAGMGVDSGLPDFRGDTGFWKAYPPYQKLGITFVGAANPDHFERDPSFGWGFYGHRTNLYRATVPHAGFDILREWVQRYGLDYFVVTSNVDGQFQKAGFADDRILEVHGSIHHLQCTTPCTMAIWENRETIPVDEATMRAGHVPRCIHCGAVARPNILMFGDYGWVSDRSARQQRNFDEFLADTRGGRLVVVEMGAGTAIPTIRYLTEELGSRSEALAVRINPREPQIRAPHLSLPCGAREGVAAINAVLAEESEGHHHHHH | soluble
12 | MAHHHHHHMHTFYTIRYPPPNSQKGGEDSQPIRVTNKAMESLLFCIVHSIEFQSPLQPSRPQLGSSIGSSGKDSITDDEAYVRPVENSSMLLGNVTYVSRSKHKPSVLASLHTAVEAARAIQIPEKSSQVPFELRVRLLRRHRGWLWHDSRPLVEWVFRMAKTREEFSFSTTHGDASERPRPRTSPRATNAHANVVRATGGGGVHSRSREDGLVCSNDPEQIRQVLQFILKHSYDAIDLNTYADFRSGELIFDVSVQEV | not soluble
13 | MGKSLTEIAEELKGNDKKVQLIYAFNGTGKTRLSREFKNLIAPTSSEEPDGEPTRRKFLYYNAFTEDLFFWDNDLLANEAPRLKIQKNSFTDWLLRDNGLDGAVIKNFQYYTDDKLTPDFNDDFSEIAFYFARGNDEQIENIKISKGEESNFIWSIFYVLIRQVIAELNIPEDSEEGRSTDQFDDLEYIFIDDPVSSLDENHLIQQAVDLADLIKLSKPRLKFIITTHNVLFYNVLYNELKKLEKEKKSYLLLKNEDGSFDILEKQGDSNKSFSYHLHLKGVIEKAIENQQVERFHFMLLRNLYEKTANFLGYKQRSDILPEDSRRNYFQRIINFTSHSTLSNEAFAEPTPQEQETVKLLLQHLLDNYNFFQDDEQRDKP | not soluble
14 | MGHHHHHHSHMANSAGSMANSAGSPELLTKHNRRVAQKTVESLKRSLMSTNLHPSKQVKTSSQYTIFSTPQIATTTPQTQVSPGMPLMFPGGSPNFVQDIKMENGFMDVDSQSSQCPSVERNFASPRSNCSTVDSIPPMQMGQNQTHLYLPDATNFTFNGNFASPSSNCSTVDSIPPFQIGQRNNHMYLPENSNFPVNGCSPTHFSGGSMTPINNNNNVLINNNNNDFLSQKMSAISIPPQGNFGIKQVYQQTQQFLPQLQPESIPYLAQSHPEQSQYQQQQQPQEQQPPADEPTQSFSDLISSSIGMAPIDTSELIQDIEAELNSLGIQPFK | not soluble
15 | MGSDKIHHHHHHMVERALALSELNQSEPVELVSNSKPSYPDLGEAVSVEVLVGWGKEAIAIIRDNYPDVLCNSDWECDVETTRLVNTQGLDCYYSDTTLSCYMSAEWVRGDDFLSVSDGQTQRDYLDPEKLAYQILQRLVWAKENVPPPNGRVPVLFTSKAADMLWGTAQAALNGKRVLEAASPWAERVGKQVIAPSLTLYQDPQAGPYSCPFDDEGTPTKSLVFIEKGILQNYYCDRTTGRQLGNSTTGNGFRPGLGSYPTPGLFNFLIKPGSKSLKDLIQNMDDGLIVDQMLGGSGGISGDFSINIELGYRVQKGQVIGRVKDTMVAGNVYTALKQVELGSDADWNGSCYTPSLIVEGLSTTGRNN | not soluble
16 | MGSDKIHHHHHHMERNEIEQLVAHGIFPYDQQAKTRLIETAISYILLKGSYAYKIKKNIKLSFLDFSTLEKRRHFCYEELRLNQRLAKDMYINVFAVSKKGKQWSISTGPAKAKEYVILMKGMNPDHQLNALLKKNRITKKPIRQLAQQLADFHQNEKSLSLTYDPFFLSREFADIEKFSSTIEKKLGVDYYKLVQTCIQLSNHFVLLQQEFISKRPCLGYFKNCHGDLHSQNIFIEKKPVIFDCIEFREAFRHIDVLNEIAFLCMDLETYGYADLSKIFLTDYIKKTGYAFGKKEQLLFTYFKAYRSCIRAKVHTIEMSQHPSSTQIKEKVKKYIEGMAGYMIEIAGKF | not soluble
17 | MSLKLTSYTKTMQGRRKKQEDRYLVITDLTKYIDSNDYKTLYFYKKNPLYFYSIFDGHRGIKACEYCMSHIIKNIIYYFYNQGSAGAGTDEQIMEYIKLAFLKTDEQFLKVSKFPNHGCTIISLIIFRNKMFVANLGDCRAIGVVNISNTLKTEVLSNDHKPNDPKEKERIKKMGGDVICLQNVYRVKANARKNNKDKPSLLERLSMKEEVYLAVSRAIGDKDFKFNNVISATPDVICKEDNLYYSAHEVNYHYVVMACDGVWDTMSNKDIVKILQTYNNDPDKACSEIIKTAYAYGSQVHEGHHHHHH | not soluble
18 | MGSDKIHHHHHHMNILEKLFSLKRKVALVTGGGQGIGKAIAQALAAAGAAVLIMDINEETARRTVEEIKEKGGEADFYVGDVTKEEDCFGAVKKALDRWGKLDIGVNNAGIGDWCEAENYPVEKWKKVIDVNLVGVFLSAKAEFHAMKERKYGKIINIASMSGHIVNKPQKQTAYNASKAGVIHLTRSLAAEWAPYGIRVNSISPGYIRTPLIESPNVKDLVPLWLDMIPLGRLGEVDDLIGAAIFLASPASDYMTGHDLVIDGGYTVW | not soluble
19 | MAGKITVVGLGAGDMDQLTIGIHKLLTKADTLYVRTKDHPLIEELEKETKNIRFFDDIYEKHDQFEAVYEEIADILFEAARREDVVYAVPGHPFVAEKTVQLLTERQEKENVQVKVAGGQSFLDATFNVLQIDPIEGFQFVDAGTLSADELELRHHLIICQVYDQMTASEVKLTLMEKLPDDYEVVIVTAAGSRGEEIRTVPLFELDRNVALNNLTSVYIPPIKEEKLLYHEFSTFRSIIRELRGPNGCPWDKKQTHQSLKQYMIEECYELLEAIDEEDTDHMIEELGDVLLQVLLHAQIGEDEGYFTIDDVIKGISEKMVRRHPHVFKDVKVQDENDVLANWEDIKKAEKNTSESSLLDSVPKTLPALSKAAKLQKKAAKVGFDWEDVSDIWEKVSEEMKEFSSEVSEAPHEHNLKAEFGDILFALVNVARFYKIEPEEALTMTNDKFRRRFSYIEETAKEEGVELADMSLEDMDKLWNEAKETERRS | soluble
20 | MGSDKIHHHHHHMATVISMINLKGGVGKTTLTVAMAEFMAAEYGLKVLVVDLDPQTNATVALINELEWRKRNIRGQTLLNIFLDHLSKYQVFSLEEAIVHNVSNVNGGIEGLDLLPSSIDLIEVHDEFLQAIPSLPINPLHLLDDVLRAALSAYDIVLIDCPPDLGLICQNGLMISDYYIIPTIPDILSTYGIPQIINRIGRLQRENSISIQPLGLVISKYRQQSEIHKNQANLLKIHAPKAGYRQVFNTFIPEGNLAAMVMDYTLHFNSLREKYNYSKYYQIYKALTEEVLSCVQ | not soluble
21 | MLAPKAFLDALSGHASRLFNGETPVPRSEFETQFKALLQSGFSKLDLVSREEFDSQMAVLARTRARLEALEAKMAELEGKVGGAEKAGSE | not soluble
